Measured values taken from paper PMC10324392, “Enabling Peptide Ligation at Aromatic Junction Mimics via Native Chemical Ligation and Palladium-Mediated S-Arylation”.

Experiments:
[1] = biological target: Max DNA-binding domain (synthetic, S-arylated) (UniProt P61244, F43C, then Cys43 S-arylated with Pd-1 to a Phe mimic); assay: BLI; EMSA: 10 mM MES, 150 mM KCl, 1 mM MgCl2, 10% glycerol, room temperature 1 h, 10% TBE gel, pH not given; BLI: 1x PBS, 0.1% BSA, 0.02% Tween-20, streptavidin sensors, temperature not given; details: chain copies: 2; (22 bp, only one strand printed)
Chain of Max DNA-binding domain (synthetic, S-arylated) (P61244 22-102 F43C): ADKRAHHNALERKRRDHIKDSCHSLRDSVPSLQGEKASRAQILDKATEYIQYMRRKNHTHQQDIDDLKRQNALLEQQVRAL

[2] = biological target: Max DNA-binding domain (synthetic, S-arylated);Myc DNA-binding domain (synthetic, S-arylated) (;, UniProt P61244;P01106 ;, F43C, then Cys43 S-arylated with Pd-1 to a Phe mimic|Y402C, then Cys402 …); assay: EMSA; equimolar Myc and Max; 1 uM DNA; 0, 4, 8 uM protein; EMSA: 10 mM MES, 150 mM KCl, 1 mM MgCl2, 10% glycerol, room temperature 1 h, 10% TBE gel, pH not given; BLI: 1x PBS, 0.1% BSA, 0.02% Tween-20, streptavidin sensors, temperature not given; details: tags: ;; copies: 1;1; (22 bp, only one strand printed)
Chain of Max DNA-binding domain (synthetic, S-arylated);Myc DNA-binding domain (synthetic, S-arylated) (P61244 22-102, stated change not applied, chain 1 of 2): as the sequence (P61244 22-102 F43C) above, with C22F counted along it
Chain of Max DNA-binding domain (synthetic, S-arylated);Myc DNA-binding domain (synthetic, S-arylated) (P01106 369-449, stated change not applied, chain 2 of 2): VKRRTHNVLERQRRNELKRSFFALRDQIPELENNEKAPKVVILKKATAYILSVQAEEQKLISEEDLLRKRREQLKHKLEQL

B1: biotinylated E-box DNA probe (BLI) (dsDNA)
DNA 1: CCGGCTGACACGTGGTATTAAT
DNA 2: ATTAATACCACGTGTCAGCCGG
[1]
  Kd: 14.8 ± 0.2 nM

B2: E-box DNA probe (22 bp) (dsDNA)
DNA 1: CCGGCTGACACGTGGTATTAAT
DNA 2: ATTAATACCACGTGTCAGCCGG
[2]
  binding result: binds
